A short description of data set [1]: PET hydrolysis, aromatic products released after 48 h (umol product/mg enzyme); higher = more PET depolymerization activity. Summed up: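 Hydrolysis activity toward PET is reported as supernatant aromatic product per mg enzyme. To measure it, 5 μg (50 μL) of tagless enzyme was incubated with 3.5 mg amorphous PET film or crystalline PET powder in 450 μL buffer for 48 h at 40 or 60 °C in sealed, unshaken plates. The product was quantified by absorbance at 260 and 280 nm relative to buffer blanks.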

The nature of data set [2]: purified protein yield per well (BCA); higher = higher soluble expression. Summed up: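 The measured quantity is purified protein yield per well, determined with the Pierce Rapid Gold BCA kit. Anything below 25 ug (0.1 mg/mL) lies under the detection threshold. Enzymes were expressed in E. coli C41(DE3) in 2 mL autoinduction cultures with 100 µg/mL kanamycin at 37 °C for 2 h, then 18 °C for 40 h, and purified on an OT-2 robot using Ni-charged magnetic beads and SUMO protease release.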

Data set [3] in a line: melting temperature (DSF); higher = more thermostable. Summed up: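 Enzymes made in E. coli C41(DE3) were nickel-bead purified and cut free with SUMO protease before testing. Differential scanning fluorimetry gave each melting temperature. For this, 5 μL 5X Sypro Orange was added to 45 μL enzyme (0 to 0.3 mg/mL) in sealed PCR plates, and a Bio-Rad CFX96 read fluorescence from 25 °C over 250 cycles of 0.3 °C each, ramping at 0.3 °C/s.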

Where [4] appears, read: substrate: cryPow, 40 °C, pH 4.5.
Setting [5] is: substrate: cryPow, 40 °C, pH 5.5.
The mark [6] stands for this setting: substrate: cryPow, 40 °C, pH 6.5.
Where [7] appears, read: substrate: cryPow, 40 °C, pH 7.5.
The mark [8] stands for this setting: substrate: aFilm, 40 °C, pH 4.5.
Where [9] appears, read: substrate: aFilm, 40 °C, pH 5.5.
The mark [10] stands for this setting: substrate: aFilm, 40 °C, pH 6.5.
The mark [11] stands for this setting: substrate: aFilm, 40 °C, pH 7.5.
Setting [12] is: substrate: aFilm, 60 °C, pH 4.5.
The mark [13] stands for this setting: substrate: aFilm, 60 °C, pH 5.5.
[14] abbreviates: substrate: aFilm, 60 °C, pH 6.5.
[15] abbreviates: substrate: aFilm, 60 °C, pH 7.5.
Where [16] appears, read: substrate: cryPow, 60 °C, pH 4.5.
Where [17] appears, read: substrate: cryPow, 60 °C, pH 5.5.
The mark [18] stands for this setting: substrate: cryPow, 60 °C, pH 6.5.
Where [19] appears, read: substrate: cryPow, 60 °C, pH 7.5.
[20] abbreviates: substrate: cryPow, 40 °C, pH 8.5.

± gives the standard deviation of the averaged measurements.

As for “ADNPYQRGPDPTTASVAATRGTFATAEQTVGGGNGFAAGKIYYPIDTSQGTFGAIAIVPGYTATWAAEGAWMGPWLASFGFVVIGIDTNSRNDYDTARGTQLLAALDYLTQRSPVSGRVDAKRLSVMGHSMGGGGAVYAAIHRPSLWAAVGLAPFSPSQNLTTDKVPALLLAGQNDGTVSPSSVQSLYNGIPAGVEKGYLELAGAGHGFPTSSNSVMMRRVIPWLKIFVDHDSRYSKFLCPSLADSTGISGYRSTCPLDVPGGGDPGPGDQAVSLVGAGSGKCIDVPNQSQANGTALVVWTCNGGTNQRWTPTSAGELRVYNGTKCMDAGSGQPGTAVTINACGGGNSQKWTVNATGTITNAQAGACLDVSGGGTADNTPVIVWNCTGAANQVWTRQM [ESM103]”, the PET hydrolysis in data set [1] (setting [4]), in data set [1] (setting [5]), in data set [1] (setting [6]) and in data set [1] (setting [7]) was less than 3 throughout. Further, in data set [2], the “purified protein yield per well” value was found to be 48.2 µg. The sequence also came in with a melting temperature in data set [3] of 51.7 C.

For “ADNPYQRGPDPTRTSVTAVNGPFANTSVSVPTGHGFNGGRIYYPTDTSQGTFGAIAISPGYTALFSAELAWMGPWLASHGFVVIGIETNSRNDFDTARGTQLLAALDYLTQQSPVRDRVDPSRLAVSGHSMGGGGALSAAMRRASLKAVVGITPYSPSSNLANDRVPTMIISGQADTVVTPSYALGLYNSIPATTESVYLEVAGGDHGFMVGRSNPVLVRTMLPFLKMFIDNDTRYSQFLCPLLDNSGVVTYRSTCPLLPTDPTTPPTGTPTPTPTTPAPTTPPPTTPPGSASEIRGTQSNRCIDVPNASRNNGTRVQLYDCNRQTNQAWTYTANKQLQVYGNMC [ESM106]”, the PET hydrolysis is less than 3 in data set [1] (setting [8]); 1.5 ± 2.1 in data set [1] (setting [9]); 3.5 ± 0.71 in data set [1] (setting [10]); less than 3 in data set [1] (setting [11]); less than 3 in data set [1] (setting [12]); less than 3 in data set [1] (setting [13]). The PET hydrolysis in data set [1] (setting [14]) is less than 3; in data set [1] (setting [15]) it was less than 3; in data set [1] (setting [4]), 9 ± 4.2; in data set [1] (setting [5]), 24 ± 5.7; in data set [1] (setting [6]), 28 ± 2.8; in data set [1] (setting [7]) it was 19 ± 1.4. Further, the PET hydrolysis in data set [1] (setting [16]) was less than 3; in data set [1] (setting [17]), 2 ± 2.8; in data set [1] (setting [18]) it was 4.5 ± 0.71; in data set [1] (setting [19]) it was less than 3. The “purified protein yield per well” value in data set [2] turned out to be 392 µg. Also, in data set [3], the melting temperature was determined as 62.2 C.

As for “GQAAVPVAVAGTSAFAKGPDPTEQSIQAQRGPFATAQRTVPSEAGRAFNRGTVHYPTDTSHGTYGAVVVSPGFFGPEFSVAWYGSTLASHGFVVLTLETNFLFDQPDARATQLLAGLDWLAARSPVKDRVDPNRLAVMGHSMGGGGTLIAASRNPALKAAIPLTPWNTSPDFSTVTVPTLVLGTDNDTVAPVARHADPMYASLRDKPDEGYVKLRGDHFTPIRYTAAATRFIVPWLKRYVDEDTRYSRFLCPLPAPDATLVSFELRCPV [DP040]”, the PET hydrolysis in data set [1] (setting [5]) was less than 3; in data set [1] (setting [6]) it was 3; in data set [1] (setting [7]), less than 3; in data set [1] (setting [20]), less than 3. In addition, the “purified protein yield per well” value in data set [2] came to 28 µg. The melting temperature in data set [3] is 40.3 C.

As to “ADNPYQRGPDPTLASVAANRGTFATAQLSVPGDGFGSGVIYYPTDTSQTFGAVAIVPGYSALFSVEEAWMGHWLASFGFVVIGIETISRSDSADARATQLLAALDYLTQRSSVRSRVDASRLSIIGHSAGGAGVLTAVLRRPTLKAAVGLAPGSPVGNYNLSSDRVPTMFISGQRDTTVSQSYLNGIYPTIPASTPSAWVELTGGDHLFPTRANTNMMRVLIPWLKIFVDNDTRYTQFLCPLMDSSGISMYRNKCPYVPTSPSPSPSTSPSPSVSPSPSPSASPSPSPSPSTSPSPQPSGACSATYRTVNSWSGGYQAEVTVTAGSSAINRWSVRWTLSSGQSISQVWNGTLSAGGSSVTVANASYNGSLPASGTTTFGFLANGAPSTPTLTCTSP [ESM034]”, the PET hydrolysis in data set [1] (setting [8]), in data set [1] (setting [9]), in data set [1] (setting [10]), in data set [1] (setting [11]), in data set [1] (setting [12]) and in data set [1] (setting [13]) was less than 3 each time. For the same sequence, the PET hydrolysis in data set [1] (setting [14]), in data set [1] (setting [15]), in data set [1] (setting [4]), in data set [1] (setting [5]), in data set [1] (setting [6]) and in data set [1] (setting [7]) was less than 3 throughout. Also, the PET hydrolysis in data set [1] (setting [16]), in data set [1] (setting [17]), in data set [1] (setting [18]) and in data set [1] (setting [19]) was less than 3 in each case. The “purified protein yield per well” value in data set [2] came to 392 µg. The sequence also had a melting temperature in data set [3] of 59.8 C.

“ASPYERGPNPTTAILEASSGPYSVSSVSVSSLVTGFGGGRIYYPTTTADGTFGGIAISPGFTARWSSLEWLGPRIASHGFVVIGIETNSIYDQPTSRGQQLLAALDYLVNSSSARTRVDRNRLAVAGHSMGGGGTLYAANARPSLQAAVPIAPWNTDKTWGGVQVPTMIIGGESDSVAPVATHAIPFYTSIPASSEKAYLELNNASHFFPQTVNTTMAKSMVSWLKRYVDDDTRYDPWLCPAPSGLSISDYRDTCPA [DP084]”: the PET hydrolysis is less than 3 in data set [1] (setting [5]); 3 in data set [1] (setting [6]); 9 in data set [1] (setting [7]); 11 in data set [1] (setting [20]); less than 3 in data set [1] (setting [17]); less than 3 in data set [1] (setting [18]). In addition, the PET hydrolysis in data set [1] (setting [19]) is less than 3; in data set [1] (substrate: cryPow, 60 °C, pH 8.5), less than 3. Further, in data set [2], the “purified protein yield per well” value turned out to be 91 µg. The melting temperature in data set [3] came to 48.7 C.

For “ADNPYERGPNPTESLIEAARGPFATSQTTVSSLSVTGFGGGVIYYPTDTSQGTFGGIAISPGYTAAWSSLDWLGPRLASHGFVVIGIETNTRLDQPASRGDQLLAALDYLTQRSSVRSRVDATRLAVAGHSMGGGGSLEAAKDRTSLKAAIPLAPWNTDKTWPEVRTPTLIIGGESDTVAPVSSHSIPFYTSLTSAREKAYLELDNASHFFPQTSNTTMAKYMISWMKRYIDNDTRYEQFLCPGPSTGLLSGISDWRQTCPGS [TEP073]”, the PET hydrolysis in data set [1] (setting [4]), in data set [1] (setting [5]), in data set [1] (setting [6]), in data set [1] (setting [7]), in data set [1] (setting [16]) and in data set [1] (setting [17]) was less than 3 throughout. In addition, the PET hydrolysis in data set [1] (setting [18]) and in data set [1] (setting [19]) was less than 3 throughout. Further, the “purified protein yield per well” value in data set [2] is 81.6 µg. This sequence displayed a melting temperature in data set [3] of 46.9 C.

In the case of “AIEHRRGPAPSEQSVLAANGPFSHSTFAVSDAASAKFGKGTIYYPNDTSQGTFGGVAISPGYTSTEPHIAWLGTRLAAHGFVTITITTNSLYDNPTERGQQLLAALDYLANNAPLAIRQRLDTSRMGVVGHSMGGGGSLYAVWNRPALKAAVPLAPYHTIKNWSGIKTPTMIIGGSADGVAPVEEHSERFYSSMTYARERAYAELEGANHSGSFLFEDHPIIGKFTVAWLKRFIDGDTRYDQFLCPPPTGAYLTEYRASCPHA [DP006]”, the PET hydrolysis in data set [1] (setting [5]) is less than 3; in data set [1] (setting [6]) it was less than 3; in data set [1] (setting [7]), less than 3; in data set [1] (setting [20]), 5. For the same sequence, the “purified protein yield per well” value in data set [2] was found to be 28 µg. In data set [3], this sequence gave a melting temperature of 46.9 C.

(Values after the supplement of paper PMC12455559.)
